# Reference: patent US20170081419A1 (AbbVie / Abbott, published 2017)
# T1: human CD46 (recombinant antigen used in affinity and mapping experiments) (human, UniProt P15529 35-285, limits assumed)
# T1 construct: also called CD46 antigen
# T1 sequence (looked up): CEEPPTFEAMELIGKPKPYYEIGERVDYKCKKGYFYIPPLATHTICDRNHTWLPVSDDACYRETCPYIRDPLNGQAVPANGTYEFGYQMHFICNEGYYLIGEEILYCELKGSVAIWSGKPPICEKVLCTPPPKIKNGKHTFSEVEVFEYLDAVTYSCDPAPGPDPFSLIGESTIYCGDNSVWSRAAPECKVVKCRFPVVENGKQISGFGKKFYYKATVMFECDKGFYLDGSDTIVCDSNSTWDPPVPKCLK
# T2: marmoset CD46 homolog (marmoset (Callithrix jacchus), UniProt Q8HYX8 33-285, limits assumed)
# T2 sequence (looked up): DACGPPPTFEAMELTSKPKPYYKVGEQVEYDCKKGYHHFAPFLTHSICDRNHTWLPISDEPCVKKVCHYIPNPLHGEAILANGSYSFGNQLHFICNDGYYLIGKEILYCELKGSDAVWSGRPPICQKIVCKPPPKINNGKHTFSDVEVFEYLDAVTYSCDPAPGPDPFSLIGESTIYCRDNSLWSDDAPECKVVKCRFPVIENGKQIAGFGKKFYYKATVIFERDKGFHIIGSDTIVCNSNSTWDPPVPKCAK
# Tests used:
# [1] = target: T1, human CD46 (recombinant antigen used in …); assay: SPR (Biacore), human CD46 antigen series, 1:1 Langmuir model
# [2] = target: human CD46 on the cell surface (human), P15529; assay: cell-based or functional assay
# [3] = target: T1, human CD46 (recombinant antigen used in …); assay: bio-layer interferometry (ForteBIO, superscript F), antigen concentration series
# Procedure: (§1) With regard to the data, affinity was measured in three ways to ensure accuracy. […] Second, the affinities and kinetic constants kₒₙ and koff of the selected modulators were then measured using bio-layer interferometry analysis on a ForteBIO RED (ForteBIO, Inc.) with a standard antigen concentration series. Finally, the affinity of selected modulators was measured by surface plasmon resonance (Biacore System, GE Healthcare). Based on a standard antigen concentration series and using a 1:1 Langmuir binding model, the Kd of the antibody binding to antigen and the kinetic constants kₒₙ and koff were determined.
# marmoset CD46 homolog = target: T2, marmoset CD46 homolog; assay: ForteBIO, concentration series of recombinant monomeric CD46 homolog
# Procedure: Finally, cross-reactivity with regard to cynomolgus, marmoset, and squirrel monkey CD46 homologs were evaluated in ForteBIO using a concentration series with recombinantly expressed, monomeric CD46 antigens.
# [4] = target: T1, human CD46 (recombinant antigen used in …); assay: surface plasmon resonance (Biacore, superscript B), antigen concentration series, 1:1 Langmuir model
# Procedure: as §1
Binder,"effective concentrations causing 50% cell death (EC50), HEK-293T cells, streptavidin-saporin [2] [nM]",Kd [3] [nM],binding result (marmoset CD46 homolog),also measured
"humanized antibody hSC1.N71 (antibody, human IgG1, V domains shown, also called humanized SC1.N71; human SC1.N71) VH: QVQLQESGPGLVKPSETLSLTCTVSGGSVSSYDISWIRQPPGKGLEWIGVIWTDGGTNYNSAFMSRVTISVDTSKNQFSLKLSSVTAADTAVYYCARVYDGYPWFAYWGQGTLVTVSS VL: DIQMTQSPSSLSASVGDRVTITCRASQGISNYLNWYQQKPGKAPKLLIYYTSSLHSGVPSRFSGSGSGTDFTLTISSLQPEDFATYYCQQYIKLPWTFGGGTKLEIKR",0.0266,–,–,Kd [1]: 0.7 nM
"humanized antibody hSC1.N149 (antibody, human IgG1, V domains shown) VH: QVQLVQSGAEVKKPGASVKVSCKASGYTFTDYNMDWVRQAPGQGLEWMGDINPNNGDTFYNQKFKGRVTMTTDTSTSTAYMELRSLRSDDTAVYYCARSKYDNYPWFAYWGQGTLVTVSS VL: DIQMTQSPSSLSASVGDRVTITCRASQDINNYLNWYQQKPGKAPKLLIYYTSSLHSGVPSRFSGSGSGTDFTLTISSLQPEDFATYYCQQYIKLPWTFGGGTKLEIKR",0.174,–,–,–
"N135.1 (antibody, IgG2b, V domains shown, .1 is the subclone suffix; also called SC1.N135) VH: DVQLVESGGGLVQPGGSRKLSCAASGFTFSSFGMHWVRQAPEKGLEWVAYISSATSAIYYADTVKGRFTISRDNPTNTLFLQMTSLRSEDTAMYYCARKGNNYFDYWGQGTTLTVSS VL: QIVLTQSPAIMSASPGEKVTLSCSATSSVTYMHWLQQKPGSSPKPWIYRTSNLASGVPARFRGSGSGTSYSLTISSMEAEDAATYYCQQYHSYPPTFGGGTKLEIKR",–,1,no binding,–
"N95.1 (antibody, IgG2a, V domains shown, .1 is the subclone suffix; also called SC1.N95) VH: QVQLQQSGAELARPGASVKLSCKASDYTFTSYGISWVKQRTGQGLEWIGEIFPRSGNTYYNEKFKGKATLTADKSSSTAYMELRSLTSEDSAVYFCARGLGGAMDYWGQGTSVIVSS VL: DIVMTQAAPSVPVTPGESVSISCRSSKSLLHSNGNTYLYWFLQRPGQSPQLLIYRMSNLASGVPDRFSGSGSGTTFTLRISGVEAEDVGVYYCMQHLEYPCTFGGGTKLEIKR",–,8,no binding,–
"N146.2 (antibody, IgG1, V domains shown, Kept apart from m10, which is the mouse/human chimeric form of the same clone; also called SC1.N146 (murine hybridoma clone)) VH: EVQLVESGGGLVKPGGSLKLSCAASGFTFSSFGMSWVRQTPEKRLEWVAAINSNGGNTYYSDTVKGRFTISRDNAKNTLYLQMSSLRSADTALYYCARVVHFDVWGAGTTVTVSS VL: AIQMTQTTSSLSASLGDRVTISCSASQDISNYLNWYQQKPDGTVKLLIYYTSSLHSGVPSRFSGSGSGTDYSLTISNVEPEDVATYYCQQYSELPYTFGGGTKLEINR",–,–,no binding,Kd [4]: 1.5 nM
"N50.3 (antibody, IgG2b, V domains shown, .3 is the subclone suffix; also called SC1.N50) VH: EVLLHQSGPELVKPGASVKIPCKASGYTFTDYNMDWVKQSHGKSLEWIGDINPNNGGTFYNQKFKGKATLTVHKSSSTAFMELRSLTSEDTAVYYCTRSKYDNYPWFAYWGQGTLVTVSA VL: DIQMTQITSSLSASLGDRVTISCSASQGISNYLNWYQQKPDGTVKLLIYYTSSLHSGVPSRFRGSGSGTNYSLTISNLEPEDIATYYCQQYIKLPWTFGGGTKLEIKR",–,1,–,–
